# From the DeepSol protein solubility set
# Experiment: soluble on expression in E. coli; label from the status in PepcDB or PDB records
row,Sequence,soluble on expression in E. coli
1,MSLRTIKNLRDMIEQSSKLFANKDAFRVKTKDNSYRGITFAEFKNDIDAFGTALLDLLGTEKGFVAVIGENRYEWCVTYLATINGVGVVIPLDKELPLPELENLLKQSNANAIVYSGKFHDAIKEMSSRLSNIKYFINMNTNEHEDDKFLSFWVLLEKGKKLLESGKKDYLNAPIDENAMSAMIFTSGTTGQAKAVMLSHKNICSNMMAVSASVYMDSTDSVLSILPLHHTYECTAGFLTMIYNGATITFNEGLKYIGKNLKEAQPTILILVPLILESMYNKIWEQASKDKSLKFKLKAGLFISNLLYKVFKIDIRRKLFKSVIDNVGGKLRLVISGAAALDPEVAKGFEAMGIKVLQGYGLTEASPIVAVNRDKSYRHDSVGLPLPGLDVEIINPDKEGFGEIIVKGDSVMLGYYNNDDATKAVLKDGWLYTGDLGRMDEKGFIYITGRKKNIIVTKTGKNIFPEEVEAYLNKSPYIKESLVSGRENDKNDETIVVAQIVPDMDAIKAKLKTDTVPSPEEVYKLIKAEIRAINKNMPVYKRVVDITIRENEFAKTSSKKIKRYLEKTNEGHHHHHH,soluble
2,MEKGTPPTHDSDNWMGRAKEIGNGGWDQFQFLFFDPNGYLYAVSNDKLYKASPPQSDTDNWIARATEIGSGGWSGFKFLFFHPNGYLYAVRGQRFYKALPPVSNQD,soluble
3,GPGSMRVNDSITVQQLADEYCITSVVECDATGSVQPRAVALDSPLDVLHGGKYYIARRDVKHFAREPRVTFRGKVTVREFNATHGVIGREGETNANRGQAVAADPVGVAPSRKRPEREEDLFDSGTRTEIYAKEYEFVPFVGDLYNDGRNGMIHLKDVKKLCESVDLDEVEFRARHVQAEKILTHAKQLLLSYADGNGGRTSPEY,not soluble
4,MLWNVDLLKTLNIMYNKILFMNNSFFGRFKKNDNQVIEEQPPVWEDRIFWVETLQKIAFPVLNNLKKESLKKNMSIESFSSESNKFAHLGAFSNVFNGIAPWLELGPDESEEGKIREKYIVLTLKAISNAVNPNSKDYILFTEPKQSLMSMALFAQGLLRSKTQIWNNLPMDVQARVIYELKNTRIIAPFENHWLLFTSMIEATLLEFTGECDRERLTYSIRKFRDEWYLGDAIYADGPEFDVNYYNSIFIHPMLNDILKVMRKYGINEGELLDVQLMRSSRYASQLERIISPEGTYPLLGKSMAYRTGIFHLLAQAALFKILPRNMETSQVRSALTKVLRTQFGGHQNFDNKGWLTIGLNGCQAEIAEKDINTGSLYGCCAIFLPLGLSFNDSFWVGPFEEWTTLKAWNGNPVEPDQSIDFLEHHHHHH,not soluble
5,SENVPFASKERADIFSMRTLIDFGGIAILHAYQSRISEYIAEKELSAMNVILKSQYDQYRNYQDSLDLIQMKYHDLKHQITALRAESDAEKRKKWIDAMEEEVSAFENMSKTGNQVLDTILAAKIFHCRKNHIQITCVADGKLLDFIHVTDLCSIFGNALDNAIEHVIMIPEAEKRLIHLTVSAKKSFVFIKIENYCEDKIQKNENDLITTTKADRQNHGFGLKSIRTVVEKYNGSVDFGVDQNWFELKILLPRVM,not soluble
6,MIQLGGYKPRLSLHNSLFRALVSKQGGILNDQLKQAEFIFHNVVTTGLEVQKDIYSGLIWLHSCQDEVDIGRINSLREEMKKAGFQESKEVVVSLLRAYAKEGGVEEVERTWLELLDLDCGIPSQAFVYKIEAYSKVGDFAKAMEIFREMEKHIGGATMSGYHKIIEVLCKVQQVELVETLMKEFEESGKKPLLPSFIEIAKMYFDLGLHEKLEMAFVQCLEKCQPSQPIYNIYLDSLTKIGNLEKAGDVFNEMKNNGTINVSARSCNSLLKGYLDCGKQVQAERIYDLMRMKKYEIEPPLMEKLDYILSLKKKEVKKRPFSMKLSKDQREVLVGLLLGGLQIESDKEKKSHMIKFEFRENSQAHLVLKQNIHDQFREWLHPLSNFQEDIIPFEFYSVPHSYFGFYAEHYWPKGQPEIPKLIHRWLSPHSLAYWYMYSGVKTSSGDIILRLKGSLEGVEKVVKALQAKSMECRVKKKGKVFWIGLQGTNSALFWKLIEPHVLENLKEHLKPASESLDNVKEAEEQSINFKSNSDHSDDCVNSEAHFY,not soluble
7,MGSDKIHHHHHHMSHLQTSNLPFKQRVDQQVHNEIMRKAVVNAQETIGQNRQKMVDELGHWEEWRDLSKQFRNHVLANLDAYLYQLSEKVKQNGGHVFFAETAEEATAYIRKVALAQKAKTIVKSKSMVTEEIGMNHVLEAEGINVVETDLGEYLLQIVGDKPSHIVVPAIHKDRHRIRKELHEKLGYTGSEQPEEMNAFVRKTLRKDFLNADIGISGCNFAVAETGSVCLVTNEGNLRLATTLPKTHIAVMGMERLAPTFKEVDALITMLCRSAVGAKLTAYNTWLTGPRLEGETDGPEDFHLVIVDNGRSKILASEFAEVLRCIRCGACLNTCPAYRQIGGHGYGSIYPGPIGAVISPLLGGYDEFKDLPYACSLCTACNSVCPVKIPLAQLILKHREKLVEEGRTPKGEQLAIKGFSFANSHPSLWGAGVKIGAKIAAKFIKNGKAPLQPGALGEWTKARDLPNPEGQSFREWFANRK,not soluble
8,MAPRKRSHHGLGFLCCFGGSDIPEINLRDNHPLQFMEFSSPISNAEELNIRFAELVDELDLTDKNREAMFALPPEKKWQIYCSKKKVPSLTPLATSQGSWHGVALAALACSCIHLMFITCQPCSRCWRNNSE,soluble
9,MNTLIPISEQTVGQETVQTVNARDLHAFLEVKTSFKDWIIRRIQDCKFKEGYDFCSFLSESSGGRPSKEYHITLDMAKHLSMIERNDKGHEARQYFNFLFDNMSVLCLLSNQVPQKHLKYTAGRLPKQSLLRTLKALTHYMLVAYKWLVGCGYAIQYPRGESVTTDCVPCF,soluble
10,MVEEICHICNDKSTGKHYGAISCDGCKGFFRRSIRKRYHYQCRFEQNCDVTKNKRNACRACRLQKCVKAGMKSNAIQNERDAIGKRKKTTGAEKEDLIDQLVAAETLCQQLRSSVIKNTSSLAPYDCGKVKWNYEDARAATLDDIGKSIHQQLVLFIEWAKSLPQFSFLAQADQAALLKGGAASIIVLGVAYRSICLTVENTICLANDTLLPKEHATQVGDINCVVGRIIDEIVNPMRRLNMDLIEYVALKAILFFNPVVREINDQSPVENARYAFLRSLQRRCTDKALENMEDESMDCRSGKLLLLLPSLQAIAQQLVEDVQLARLFGLVNVDSLMEELILNDMKPSDPQILQTSLASPVNSSVKAEVELEE,soluble
11,MGSDKIHHHHHHMLNSLSIFEQAIRALPIDRSLTRQDLFIDGFLLQQEQELSVYYSPIGEYINRSAKIVFIGITPGFEQMRLAYEEAADAFHHGATIEETSKLVKYSASFAGPMRRNLTAMLDELELHRLLNIASTATLFHTNQELLHTTSILRHPVFYRDKNYTGHQPKIDRTPLLQHYAYEHFAAELNQLPDPVILVPFGRVVESTVRTLLHQGRIKKHTVLFGFPHPSGANGHRKRQFEENKDYLMKQLNSYFNT,not soluble
12,MDMMWISYHLKKGGRRLRIRIGIDIGSTHTDAVALEGKELIVADKVMTTPDLTTGLLNAISRVMKKLGERKNEVDTLMIGTTHGLNALHQGKGLNRVATIRIGLPAGEGVPPVFDWPEQLSNFVTYRYMVRGGHEYTGEEIVELDEGKIKEIAEAINGKVDAIAISSIFSVVNSSHEIRAREILREKG,not soluble
13,MDINKMTYAVQSALQQAVELSQQHKLQNIEIEAILSAALNESESLYKSILERANIEVDQLNKAYEDKLNTYASVEGDNIQYGQYISQQANQLITKAESYMKEYEDEYISMEHILRSAMDIDQTTKHYINNKVEVIKEIIKKVRGGNHVTSQNPEVNYEALAKYGRDLVEEVRQGKMDPVIGRDEEIRNTIRILSRKTKNNPVLIGEPGVGKTAIVEGLAQRIVKKDVPESLLDKTVFELDLSALVAGAKYRGEFEERLKAVLKEVKESDGRIILFIDEIHMLVGAGKTDGAMDAGNMLKPMLARGELHCIGATTLNEYREYIEKDSALERRFQKVAVSEPDVEDTISILRGLKERYEVYHGVRIQDRALVAAAELSDRYITDRFLPDKAIDLVDQACATIRTEMGSNPTELDQVNRRVMQLEIEESALKNESDNASKQRLQELQEELANEKEKQAALQSRVESEKEKIANLQEKRAQLDESRQALEDAQTNNNLEKAAELQYGTIPQLEKELRELEDNFQDEQGEDTDRMIREVVTDEEIGDIVSQWTGIPVSKLVETEREKLLHLSDILHKRVVGQDKAVDLVSDAVVRARAGIKDPNRPIGSFLFLGPTGVGKTELAKSLAASLFDSEKHMIRIDMSEYMEKHAVSRLIGAPPGYIGHDEGGQLTEAVRRNPYSVILLDEVEKAHTDVFNVLLQILDEGRLTDSKGRSVDFKNTIIIMTSNIGSQVLLENVKETGEITESTEKAVMTSLNAYFKPEILNRMDDIVLFKPLSIDDMSMIVDKILTQLNIRLLEQRISIEVSDDAKAWLGQEAYEPQYGARPLKRFVQRQIETPLARMMIKEGFPEGTTIKVNLNSDNNLTFNVEKIHE,not soluble
14,GMATEKYHEILKKYFLSFETGDFSQVQFSCNLEFLSPISGNTLKGTEEVIPFLKGVTTRVAEVNIMSTTVEYPRASGVWQMRTTKGTLYTLHNFFRLDEEGIVYVWPMFDPKAVMENPDALIQWLTGKDY,soluble
15,MTIDCHEDRRVLLVPHTGRPQNVASAALAAELLDDSGVGVRVLVPAEDTTVATHPVLGQFERVSHSPQATQSVDLVLVLGGDGTFLRAADLAHGADLPVLGINLGHVGFLAEWEKDSLDEAVRRVTKGSFRIEERMTLDVSVYDSNGTAIGRGWALNEVSIENSNRSGVLDATLEIDSRPVSSFGCDGIIVSTPTGSTAYAFSAGGPVLWPELDAILVVPNNAHALFTKPLVVSPRSSVAVESHPSAFPATAVMDGFRSISVPPGARVEVKRGSRSIKWVRLDDIPFTDRLVTKLRLPVEGWRGPKNMIPQINPHSALEHHHHHH,soluble
16,MGKGDPKKPRGKMSSYAFFVQTCREEHKKKHPDASVNFSEFSKKCSERWKTMSAKEKGKFEDMAKADKARYEREMKTYIPPKGETKKKFKDPNAPKRPPSAFFLFCSEYRPKIKGEHPGLSIGDVAKKLGEMWNNTAADDKQPYEKKAAKLKEKYEKDIAAYRAKGKPDAAKKGVVKAEKSKKKKEEEEDEEDEEDEEEEEDEEDEDEEEDDDDE,soluble
17,DRLGPHRAAMMASLNDAVKAASQHHQAEAFGQGDMFGVLTDAPEEVENKYTQVPPWPEKVWLEGERETLGLYLTGHPINAYLKELNKYTSCRLKDATPTRRDQ,not soluble
18,MRAFSFRPFFLQALVVMPEYVNWLRHASPYINAHRDCTFVVMLPGDGVAHPNFGNIVHDLVLLHSLGVRLVLVHGSRPQIESRLAQRGITPRYHRDMRITDTETLECVIDAVGQLRISIEARLSMDMAASPMQGSRLRVTSGNVVTARPIGVLEGIDYQHTGEVRRVDRKGINRLLDERHIVLLSPLGYSPTGEIFNLACEDVATRAAIDLAADKLLLFGAETGLLDEQGRLVRELRPQQVPAHLQRLGGNYQAELLDAAAEACRGGVARSHIVSYAEDGALLTELFTRDGGGTLVAQEQFELVREAAIEDVGGLMDLITPLEEQGILVRRSREVLEREITQFSVVEREGLIIACAALYPIADSESGELACLAVNPEYRHGGRGDELLERIENRARALGIKTLFVLTTRTAHWFRERGFEPSSVDRLPSARASLYNFQRNSKIFEKAI,not soluble
19,MIITDVEVRVFRTTTRRHSDSAGHAHPGPAHQVEQAMLTVRTEDGQEGHSFTAPEIVRPHVIEKFVKKVLIGEDHRDRERLWQDLAHWQRGSAAQLTDRTLAVVDCALWDLAGRSLGQPVYKLIGGYRDKVLAYGSIMCGDELEGGLATPEDYGRFAETLVKRGYKGIKLHTWMPPVSWAPDVKMDLKACAAVREAVGPDIRLMIDAFHWYSRTDALALGRGLEKLGFDWIEEPMDEQSLSSYKWLSDNLDIPVVGPESAAGKHWHRAEWIKAGACDILRTGVNDVGGITPALKTMHLAEAFGMECEVHGNTAMNLHVVAATKNCRWYERGLLHPFLEYDDGHDYLKSLSDPMDRDGFVHVPDRPGLGEDIDFTFIDNNRVR,soluble
